# Positions count from the first letter of the chain named.
# T1: Peptide 2a
# T1 peptide: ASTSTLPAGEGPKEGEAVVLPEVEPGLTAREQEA
# T2: recombinant CD138 extracellular domain (soluble CD138) (UniProt P18827 23-250)
# T2 chain: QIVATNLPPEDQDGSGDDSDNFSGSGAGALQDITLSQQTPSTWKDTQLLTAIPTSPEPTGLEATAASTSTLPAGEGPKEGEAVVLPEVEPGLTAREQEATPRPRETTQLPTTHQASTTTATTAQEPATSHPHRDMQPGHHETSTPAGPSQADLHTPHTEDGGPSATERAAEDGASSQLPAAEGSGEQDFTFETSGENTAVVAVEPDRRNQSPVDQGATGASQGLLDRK
# T3: Pep6
# T3 peptide: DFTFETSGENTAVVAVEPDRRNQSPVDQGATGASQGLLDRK
# B1: antibody 1610 (antibody, V domains shown)
# VH: QVQLHQPGTSLVKPGASVKLSCKASGYNFSSYYMHWVKQRPGQGLEWIGTIHPSDSTTNCNQKFKGKATLTVDKSSRTAYMQLNSLTFEDSAVYYCANFVYWGQGTSVTVSS
# VL: DIVITQDELSNPVTSGDSVSISCRSSKSLLYKDGKTYLNWFLQRPGQSPQLLIYVVSTRASGVSDRFSGSGSGTDFTLEISRVKAEDVGVYYCQQLVEYPYTFGGGTKLEIK
# B2: antibody 2610 (antibody, V domains shown)
# VH: B1 VH with N28S
# VL: B1 VL
# B3: antibody 2810 (antibody, V domains shown)
# VH: B1 VH with N28S, C60Y
# VL: B1 VL
# B4: antibody 2510 (antibody, V domains shown)
# VH: B1 VH with C60Y
# VL: B1 VL
# Biological target: T1, Peptide 2a
# Assay: ELISA
row,EC50 [ng/mL],Binder
1,3.9,B1
2,3.8,B2
3,2.8,B3
4,4.6,B4

# Biological target: T2, recombinant CD138 extracellular domain …
# Assay: ELISA
row,EC50 [ng/mL],Binder
1,2.7,B1
2,7,B2
3,5.3,B3
4,4.9,B4

# Biological target: T3, Pep6
# Assay: ELISA
row,EC50 [ng/mL],Binder
1,12.3,B1
2,4.9,B2
3,3.2,B3
4,8.9,B4

# From US20190100588A1 (published 2019)
